In paper PMC4963197 (2016):
Square brackets hold non-standard residues; d marks the D form. Ends that are not written are not given here. pS = N[C@@H](COP(=O)(O)O)C(=O)O

Key:
G-actin [1] = molecular target: T1, G-actin (UniProt P68135 1-377); assay: FP; LatB-actin; phospho-S98
G-actin [2] = molecular target: T1, G-actin; assay: FP; LatB-actin

| Binder | Kd (G-actin [1]) [nM] | Kd (G-actin [2]) [nM] |
| --- | --- | --- |
| {FAM}-PNLPPLSERKNVLQLKLQQRRTREELVSQGIMPPLKSPAAFHE [FAM-MRTF-A(62–104)] | – | 1050 |
| {FAM}-PNLPPLSERKNVLQLKLQQRRTREELVSQGIMPPLKDPAAFHE [FAM-MRTF-A(62–104) S98D] | – | 930 |

Now from value to binder:

| Kd (G-actin [1]) [nM] | Kd (G-actin [2]) [nM] | Binder |
| --- | --- | --- |
| 630 | – | {FAM}-LSERKNVLQLKLQQRRTREELVSQGIMPPLK[pS] [FAM-MRTF-A(67–98) phosphorylated at S98] |
| 850 | – | {FAM}-PNLPPLSERKNVLQLKLQQRRTREELVSQGIMPPLK[pS]PAAFHE [FAM-MRTF-A(62–104) phosphorylated at S98] |
| – | 1120 | {FAM}-LSERKNVLQLKLQQRRTREELVSQGIMPPLKS [FAM-MRTF-A(67–98)] |
